These results are taken from patent US20200399391A1 (Sanofi, published 2020).

T1: FcγRIIb expressed on HEK cells (UniProt P31994 43-310, limits assumed)
T1 construct: whole, on cells; also called HEK293T-FcγRIIb
T1 sequence (looked up): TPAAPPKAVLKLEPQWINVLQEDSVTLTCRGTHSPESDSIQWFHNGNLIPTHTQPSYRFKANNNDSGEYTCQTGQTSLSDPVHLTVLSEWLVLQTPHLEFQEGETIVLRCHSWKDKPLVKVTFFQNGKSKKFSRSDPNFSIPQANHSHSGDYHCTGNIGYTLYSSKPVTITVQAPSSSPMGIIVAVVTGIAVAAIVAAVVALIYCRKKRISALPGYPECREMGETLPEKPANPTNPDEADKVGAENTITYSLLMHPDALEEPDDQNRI

T2: FcγRIIa 131H expressed on HEK cells (human, UniProt P12318 34-317)
T2 sequence: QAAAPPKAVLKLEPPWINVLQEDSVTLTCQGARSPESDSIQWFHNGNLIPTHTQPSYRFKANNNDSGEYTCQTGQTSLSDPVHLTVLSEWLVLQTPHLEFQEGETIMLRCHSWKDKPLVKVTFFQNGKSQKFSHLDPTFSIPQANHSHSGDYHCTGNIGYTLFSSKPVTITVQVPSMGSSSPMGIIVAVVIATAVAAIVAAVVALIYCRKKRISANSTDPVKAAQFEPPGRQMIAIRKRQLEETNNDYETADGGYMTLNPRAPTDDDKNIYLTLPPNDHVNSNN

T3: FcγRIIa extracellular domain with H131, histag (Biorbyt, batch ORB138408) (human, UniProt P12318 34-217)
T3 construct: Bought protein; also called FcγRIIa H131; not shown: histag
T3 sequence: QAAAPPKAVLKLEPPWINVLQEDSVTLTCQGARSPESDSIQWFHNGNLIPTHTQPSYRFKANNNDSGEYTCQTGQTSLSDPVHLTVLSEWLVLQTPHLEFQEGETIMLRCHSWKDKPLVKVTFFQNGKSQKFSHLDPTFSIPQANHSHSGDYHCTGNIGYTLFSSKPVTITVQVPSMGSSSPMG

B1: mAb 1 (antibody, human IgG1, kappa)
heavy: not shown
light: DIVMTQSHLSMSTSLGDPVSITCKASQDVSTVVAWYQQKPGQSPRRLIYSASYRYIGVPDRFTGSGAGTDFTFTISSVQAEDLAVYYCQQHYSPPYTFGGGTKLEIKRTVAAPSVFIFPPSDEQLKSGTASVVCLLNNFYPREAKVQWKVDNALQSGNSQESVTEQDSKDSTYSLSSTLTLSKADYEKHKVYACEVTHQGLSSPVTKSFNRGEC
notes: also called HEAVY CHAIN 1 / LIGHT CHAIN 1
B2: mAb 4 (antibody, human IgG1, kappa)
heavy: QVQLVQSGAEVAKPGTSVKLSCKASGYTFTDYWMQWVKQRPGQGLEWIGTIYPGDGDTGYAQKFQGKATLTADKSSKTVYMHLSSLASEDSAVYYCARGDYYGSNSLDYWGQGTSVTVSSASTKGPSVFPLAPSSKSTSGGTAALGCLVKDYFPEPVTVSWNSGALTSGVHTFPAVLQSSGLYSLSSVVTVPSSSLGTQTYICNVNHKPSNTKVDKKVEPKSCDKTHTCPPCPAPELLAGPDVFLFPPKPKDTLMISRTPEVTCVVVDVSHEDPEVKFNWYVDGVEVHNAKTKPREEQYNSTYRVVSVLTVLHQDWLNGKEYKCKVSNKALPLPEEKTISKAKGQPREPQVYTLPPSRDELTKNQVSLTCLVKGFYPSDIAVEWESNGQPENNYKTTPPVLDSDGSFFLYSKLTVDKSRWQQGNVFSCSVMHEALHNHYTQKSLSLSPG
light: B1 light
notes: also called HEAVY CHAIN 4 / LIGHT CHAIN 1
B3: mAb 2 (antibody, human IgG1, kappa)
heavy: not shown
light: B1 light
notes: also called HEAVY CHAIN 2 / LIGHT CHAIN 1
B4: mAb 5 (antibody, human IgG1, kappa, V domains shown)
VH: QVQLVQSGAEVAKPGASVKVSCKASGYTFTDYWMQWVRQAPGQGLEWIGTIYPGDGDTSYAQKFQGRVTMTADTSTSTVYMELSSLRSEDTAVYYCARGDYYGSNSLDYWGQGTLVTVSS
VL: DIVMTQSPDSLAVSLGERATINCKSSQDVSTVLAWYQQKPGQSPRRLIYSASYRYIGVPDRFSGSGSGTDFTLTISSLQAEDVAVYYCQQHYSPPYTFGGGTKLEIKR
notes: Humanized heavy and light chains with engineered Fc; also called anti-CD38 mAb 5; HEAVY CHAIN 5 / LIGHT CHAIN 2
B5: mAb 8 (antibody, human IgG1, kappa, V domains shown)
VH: B4 VH with R38K, A40R, S59G, T74K
VL: B4 VL with L33V, L73F
notes: Humanized heavy and light chains with engineered Fc; also called anti-CD38 mAb 8; HEAVY CHAIN 6 / LIGHT CHAIN 3
B6: mAb 6 (antibody, human IgG1, kappa, V domains shown)
VH: B4 VH
VL: B4 VL with L33V, L73F
notes: Humanized heavy and light chains with engineered Fc; also called anti-CD38 mAb 6; HEAVY CHAIN 5 / LIGHT CHAIN 3
B7: mAb 7 (antibody, human IgG1, kappa, V domains shown)
VH: B4 VH with R38K, A40R, S59G, T74K
VL: B4 VL
notes: Humanized heavy and light chains with engineered Fc; also called anti-CD38 mAb 7; HEAVY CHAIN 6 / LIGHT CHAIN 2

Changes are numbered by the printed parent chain.

For one experiment, the target named is T1, FcγRIIb expressed on HEK cells. Nature of the experiment: flow cytometry on HEK293T cells expressing the receptor.
Turning to B1, the “difference in affinity versus mAb 1” value turned out to be 1 fold.

The next experiment addresses T4, FcγRI expressed on HEK cells (UniProt P12314 16-374, limits assumed).
T4 construct: whole, on cells; also called HEK293T-FcγRI
Described as above.
B1: the “difference in affinity versus mAb 1” value was 1 fold.

As for B2, the “difference in affinity versus mAb 1” value was 1.5 fold.

Regarding B3, the “difference in affinity versus mAb 1” value came to 1.8 fold.

A further experiment concerns the target T1, FcγRIIb expressed on HEK cells. The experiment can be described thus: flow cytometry on HEK293T cells expressing the receptor, FITC anti-human IgG; mean Kd.
With B1, the Kd worked out at 1300 nM.

B2 registered a Kd of 544 nM.

The next experiment has as its target T4, FcγRI expressed on HEK cells. The experiment is described as above.
Turning to B1, the Kd was found to be 24.2 nM.

In turn, B2 gave a Kd of 15.9 nM.

In the case of B3, the Kd is 13.5 nM.

The next experiment concerns the target T1, FcγRIIb expressed on HEK cells. Nature of the experiment: flow cytometry on HEK293T cells expressing the receptor; the text calls it fold lower affinity.
B2: the “difference in affinity versus mAb 1” value was 1.8 fold.

Take B3: the “difference in affinity versus mAb 1” value was found to be 3.9 fold.

Another experiment concerns the target T5, human CD38 (human, UniProt P28907 43-300, limits assumed).
T5 construct: Soluble analyte in SPR; the construct (limits, tags) is not described; also called huCD38
Nature of the experiment: SPR (Biacore), mAb captured on anti-Fc chip, after thermal stress of the mAb (14 days at 40 C); n = 3.
Regarding B4, the Kd amounted to 0.828 nM, the koff was 0.00236 s⁻¹ and the kon amounted to 2.95e+06 M⁻¹ s⁻¹.

Molecule B5 came in with a Kd of 0.198 nM, a dissociation rate constant (koff) of 0.000663 s⁻¹ and an association rate constant (kon) of 3.53e+06 M⁻¹ s⁻¹.

The molecule B6 displayed a Kd of 0.346 nM, an off-rate constant (koff) of 0.00128 s⁻¹ and a kon of 3.86e+06 M⁻¹ s⁻¹.

B7: the Kd came out at 0.394 nM, the off-rate constant (koff) was 0.00133 s⁻¹ and the on-rate constant (kon) came to 3.39e+06 M⁻¹ s⁻¹.

A further experiment addresses T6, FcγRIIIa 158V expressed on cells (human, UniProt P08637 17-254).
T6 construct: also called HEK293T-FcγRIIIa-158V; FcγRIIIa (CD16a) 158V
The experiment can be described thus: flow cytometry on HEK293T cells expressing the receptor.
As for B1, the “Fold difference in affinity versus mAb 1” value turned out to be 1 fold.

As to B2, the “Fold difference in affinity versus mAb 1” value amounted to 5.9 fold.

As for B3, the “Fold difference in affinity versus mAb 1” value was 9.4 fold.

Another experiment concerns the target T5, human CD38. Nature of the experiment: SPR (Biacore), mAb captured on anti-Fc CM5 chip, huCD38 injected; n = 3.
On to B4, for which the Kd was found to be 0.699 nM, the off-rate (koff) was determined as 0.00188 s⁻¹ and the kon was determined as 2.78e+06 M⁻¹ s⁻¹.

B5 registered a Kd of 0.191 nM, an off-rate (koff) of 0.00065 s⁻¹ and a kon of 3.51e+06 M⁻¹ s⁻¹.

As to B6, the Kd was 0.385 nM, the koff was ~0.00119 s⁻¹ and the kon was 3.1e+06 M⁻¹ s⁻¹.

Take B7: the Kd stood at 0.415 nM, the off-rate (koff) is 0.0013 s⁻¹ and the kon was 3.18e+06 M⁻¹ s⁻¹.

The next experiment addresses T2, FcγRIIa 131H expressed on HEK cells. Nature of the experiment: flow cytometry on HEK293T cells expressing the receptor.
As for B1, the “difference in affinity versus mAb 1” value is 1 fold.

Regarding B2, the “difference in affinity versus mAb 1” value stood at 2.2 fold.

With B3, the “difference in affinity versus mAb 1” value was 1.4 fold.

Another experiment shares this target. The experiment can be described thus: flow cytometry on HEK293T cells expressing the receptor, FITC anti-human IgG; mean Kd.
On to B1, for which the Kd came to 1180 nM.

As to B2, the Kd turned out to be 544 nM.

As for B3, the Kd amounted to 840 nM.

In another experiment the target is T6, FcγRIIIa 158V expressed on cells. The experiment can be described thus: flow cytometry on HEK293T cells expressing the receptor, FITC anti-human IgG; mean apparent Kd.
In the case of B1, the Kd was 165 nM.

With B2, the Kd turned out to be 28.1 nM.

B3: the Kd is 17.6 nM.

The target is the same in a further experiment. Nature of the experiment: cell-based or functional assay.
As for B1, the “ADCC of KMS-12BM cells, EC50 (calcein release)” value was 41 ng/mL.

On to B2, for which the “ADCC of KMS-12BM cells, EC50 (calcein release)” value is 0.45 ng/mL.

As to B3, the “ADCC of KMS-12BM cells, EC50 (calcein release)” value was 0.65 ng/mL.

The target of a further experiment is T3, FcγRIIa extracellular domain with H131, …. The experiment can be described thus: AlphaScreen competition (relative IC50): untagged mAb displaces biotinylated anti-CD38 native IgG1 from FcγRIIa-histag.
B1 returned an IC50 of 268 nM.

B2 yielded an IC50 of 58 nM.

With B3, the IC50 was 119 nM.

The target in another experiment is T6, FcγRIIIa 158V expressed on cells. The experiment can be described thus: cell-based or functional assay. This is another data set of the same source.
As to B1, the “ADCC of RPMI-8226 cells, EC50 (calcein release)” value is 2.45 ng/mL.

Take B2: the “ADCC of RPMI-8226 cells, EC50 (calcein release)” value is 0.09 ng/mL.

Turning to B3, the “ADCC of RPMI-8226 cells, EC50 (calcein release)” value is 0.09 ng/mL.

A further experiment has the same target. Nature of the experiment: cell-based or functional assay. The source holds these as a separate data set.
As for B1, the “ADCC of MOLP-8 cells, EC50 (calcein release)” value is 3.3 ng/mL.

For B2, the “ADCC of MOLP-8 cells, EC50 (calcein release)” value was 0.12 ng/mL.

In the case of B3, the “ADCC of MOLP-8 cells, EC50 (calcein release)” value is 0.1 ng/mL.

For another experiment, the target named is T7, FcγRIIIa (CD16a) extracellular domain with V158, C-terminal histag (human, UniProt P08637 17-208).
T7 construct: also called FcγRIIIa 158V; FcγRIIIa-histag; not shown: C-terminal histag
Nature of the experiment: SPR, against mAb 1.
Consider B2, for which the “fold higher affinity than mAb 1” value worked out at 9 fold.

On to B3, for which the “fold higher affinity than mAb 1” value was determined as 9 fold.

For another experiment, the target named is T7, FcγRIIIa (CD16a) extracellular domain …. Nature of the experiment: SPR (BIAcore 2000), FcγRIIIa-histag captured on anti-His IgG, mAb 8-256 nM, two-state fit.
In turn, B1 displayed a Kd of 425 nM.

Molecule B2 returned a Kd of 47 nM.

On to B3, for which the Kd came out at 47 nM.
